Source: the DeepSol protein solubility set

Test: soluble on expression in E. coli; label from the status in PepcDB or PDB records

Soluble on expression in E. coli, soluble:
MTPSRPSPDFPDGGFVQVRGARQHNLKDISVKVPRDALVVFTGVSGSGKSSLAFGTLYAEAQRRYLESVSPYARRLFNQAGVPDVDAIDGLPPAVALQQARGTPTARSSVGSVTTLSNLLRMLYSRAGDYPPGQGIVYAEGFSPNTPEGACPECHGLGRVYTVTEDSMVPDPSLTIRERAVAAWPQAWGGQNQRDILVTLGIDVDVPWRELPEETRHWILFTDEQPVVPVYPGLTPAETQRALKKKMEPSYMGTFSSARRHVLHTFANTESASMKKRVQGYMISEECPLCHGKRLRQEALNVTFAGLDITELSRLPLARVSELLRPYAEEREPGHAERVKNRPEQAIALQRMAADLVKRLDVLLHLGLGYLGLDRSTPTLSPGELQRLRLATQLYSNLFGVVYVLDEPSAGLHPADTEALLSALENLKRGGNSLFVVEHDLDVIRRADWLVDVGPEAGEKGGEILYSGPPEGLKHVPESQTGQYLFADRHTEPHTPREPAGWLELNGVTRNNLDNLDVRFPLGVMTSVTGVSGSGKSTLVSQALVDALAAHFGQPVNPDPEDDEDPADHTAGSARLGGDLAQITRLVRVDQKPIGRTPRSNMATYTGLFDQVRKLFAATPLAKKRGYNAGRFSFNVKGGRCEHCQGEGWVMVELLFLPSVYAPCPVCHGTRYNAETLEVEYRGKNIADVLALTVDEAHDFFADESAIFRALDTLREVGLGYLRLGQPATELSGGEAQRIKLATELRRSGRGGTVYVLDEPTTGLHPADVERLQRQLVKLVDAGNTVIAVEHKMQVVAASDWVLDIGPGAGEDGGRLVAQGTPAEVAQAAGSVTAPYLRAALR
MTENVPLTRPQLRRLLRNARRALTPAQQRQATLGLYRQLAQHPLFRRARHIALYLPNDGEIDPRLLMREAQRRGKCIYLPVLHAWPRTRMVFQRFEQGEKLKPNRFRIPEPIIDRKRQRPIWALDLILLPLVGFDEVGGRLGMGGGFYDRSLAYQARRQTWKKPLLLGLAHECQKVERLAQASWDVPLQGTVSDRGWYLAPRLEHHHHHH
SFRRKLTALEYHNPTGFDCKDETEFRNFIVWLEDQKIRHYKIEDRGNLRNIPSSDWPKYFEKYLQDVNCPFSVQERQETVDWLLGLAVRFEYGDNVEKYRNCKPVTETNDVQKSADPLINLDSNNPDFKAGVLALANLLKIQRHDDYLVMLKAIKILVQERLTPDAIAKASQAKEGLPVTLDKHILGFDTGDATLNEAAQVLRLLHIEELRELQTKINEAIVAVQAIIADPKTDHRLGKVGR

Soluble on expression in E. coli, not soluble:
MGFGDIQTQPGTYSMHHMTTSTRITSRFLKNKTTNMKRLGVDPPCGVPEPKEDVLLAVSCDAFAFGQDDTNNDRITVEWTNTPDGAAKQFRREWF
MSQANLSETLFKPRFKHPETSTLVRRFSAGKPQAMQSALSGNHVDHWYRLINRLMWIWRGVTPQEILDVQARIVMSEAERTDPELFDTVIGYRGGNWIFEWAKEAMQWQQKAGQEADPLLSGRHWLHASNLYSIAAYPHIKGDELAEQAQALANRAYEEAAQRLPGSLRELEFTIPGGSPITGFLHMPKGEGPFPTVLMCGGLDSLQTDYYNLYENYFSPLGIAMLTIDMPSIGFSSKWTLNQDTSLLHQHALRHLENVPWIDHTRVAAFGFRFGANIAVRLGYLEPQRLKAVACLGPVVHGLLVDPLHQGRVPEMYLDVLASRLGMHDASDEALRVELNRYSLKTQGLLGRRCPTPMLSGFWKDDPFSPEEESRLITSSSADGKLLEIPFNPVYRNFDHALRQIARWINHRFG
MSLIQNVYINGLSGVSAQPTFDESYVDGNVQTETIPYRKVLDPDYKQYLNPTASRRFSRLIKMSLVAAQKSIAMADGVMPEAIITGTGLGCLEDTEKFLKALIENNESMLSPTAFIQSTHNTISGQIAMMITCYYPNYTYSNRYFTFESSLLDAVLMLLDKSCKHVLVNAADEIIPAVHTIVKRMHLWDRAEAIAHKNALAVTAGEGVVSMMLSSEKKESSVAAVKALELIYILPKDTSIEAHFKKFLAEASLTAADIDVLVLGMNGDAASDVYYEPVRNLFSTSTHVVYKHHFGESFTASSFAYWLGAQLIRHKKIDASVILSDKGHRAPKRVLLYNQSHNKYHSFCLLTDVDEGHHHHHH
DAPLNSVEGFIRQVLGWREFLRHVYRREMPSLAEANQLGANEALPDFYWNGDTDMACLSDVVDGVRERGYSHHIERLMILANFGLIYGVEPAQLNRWFHAGYVDAFHWVTTPNVVEMGLYGAGVFATKPYASSANYVDKMSDYCSGCPYYKTKTTGDGACPFNALYWDFLDRNEETLRSNHRMGLMYSHVDNKSDEELGEIRERAAEIREMATKGE
MHLDRQSLEKAKHLIQSGLIDTIEVGTIKGLQEIHRFLFEGLYEFAGKIRDKNIAKGNFRFANCLYLDLILPRIESMPQNNFNQIVEKYVEMNIAHPFLEGNGRATRIWLDLLLKKELKKIVLWDRIDKAAYLSAMERSPVNDLEIKTLLKKHLSSNTNDPLTLIKGITQSYYYEGLLEHHHHHH
MSEQYVYQHGTLGGLMESLMAGTAEIGTLLTQGDFGIGTLEGSNGEIILLDGTLYHANQTGEITILEGEELTPYAAVTRFQEDGAFPVSTETDENIKAQILEKISPNFFAAIKISGLFAKMHVRVAPKQEKPYPPFVEAARNQPEFTAENIQGTVVGFFTPKLFHGASAAGFHLHFISEDHQFGGHILDFGIKQGTVSWMETAELRQHFPVHDADYRNKEIDIAKALSAIEEAE
MGSDKIHHHHHHMRTRYVDIDDRMEDLADRLRGDPEIVQDFLARYELSWLYHENALEGVVYSSQELATALANAPLADVTFVSALQEIRNHKVALDLVREEAAAKKPKLNLTTVKKLYETLGHGIEGRSVAEYRKDMPLHRAYFHDIAQPPKIQPALQKLLEATEGADFRNAHPIQQACKLHHGFMQVFPFTENSGRVARLLANLVLLHAGYKLPVIVHATDRQRYYESLRLPDTILRDLTMEALDNALTQAEKYFAEAPRARKAAR
MPNHLAGETSPYLLQHAENPVDWYPWGEEALEIARMLDKPILLSIGYSACHWCHVMAHESFEDAQVATAMNEHFVNIKVDREERPDIDQIYQSAHYTLNHRSGGWPLTMFLTPEQKPFFGGTYFPKEARYSMPGFLELLPKVAELYRTRKTDIEKQNA
MVMEVDEPAVAATTSQNQPQEHANDFDMDTSEGPIENDETFEPVDQINWKFNQVKGNIDADVHTEADVISCVEFSHDGEYLATGDKGGRVVIFQRDQSGKYVKGVRSREYNVYSTFQSHEPEFDYLKSLEIDEKINQIRWLKKKNAANFILSTNDKTIKLWKISERERKIGDDAWNLPRTNRINTSSFRGRLQIPSIVPMELIVEASPRRVYGNAHTYHVNSISVNSDQETFLSADDLRVNLWNLEITNESFNIVDIKPANMEELTEVITAAEFHPTQCNWFVYSSSKGSIRLCDMRDRALCDAYAKIFEEPEDPQSRSFFSEIIASVSDVKFSHNGRYLLTRDYLTVKVWDLNMESQPVETYPVHNYLRTKLCALYENDSIFDKFECDWSGDDKHILTGSYHNLFRSYARGNNQDAKTWEARPQEPHSQLRSRFVVPSAKRKRNNLSSSGETTEEDLSSDQLQFDRKILHTAWHPKDNIIALAATNNLYIFSDV
MAENKKKNDDMATVEFESSEEVSIIPTFDKMGLREDLLRGIYAYGFEKPSAIQQRAIPAILKARDVIAQAQSGTGKTATFSISVLQSLDTQVRETQALILSPTRELAVQIQKVVLALGDYMNVQCHACIGGTNLGEDIRKLDYGQHVVSGTPGRVFDMIRRRNLRTRAIKLLVLDEADEMLNKGFKEQLYDIYRYLPPGAQVVLLSATLPHEILEMTSKFMTDPIRILVKRDELTLEGIKQFFVAVDREEWKFDTLIDLYDTLTITQAVLFCNTRRKVDWLTDKMKEANFTVSSMHGDMEQKDRDEVMKEFRAGTTRVLISTDVWARGLDVPQVSLVINYDLPNNRELYIHRIGRSGRFGRKGVAINFVKQDDVRILRDIEQYYSTQIDEMPMNIADII
MGSDKIHHHHHHMAEHIITLVLSGERLDVTTSTPFVVALRDLLYEGDWELLKEDMKKKENIMKEVQTCEKLEKVVHLDETVYEPLIFPEFQEWLREENITPKDFKNVSLKGLYDLALEYADRNLYDIAHDIIKFMLDIDENYAPAYELKGSLLVEQGKIEEGIKFLDKAVEIDPWLVQAYASLGEAYYNLGDYEKAIHYWERELEYNPNDKITYFMITEAYYEMNRKDLAVKTLERLLEIDPDNIPALYQLSQLYRELGNEEKAREMEEKIMNCKPKYPTELEPWARVMLKHGRYKEVAEELEKIVESSPLNTLARLLLVVPYVKLGQIDKAREILDDIGQSNFWYYYGKKEILDELLTEEEKRACGIS
AIFGGDGFKDWIGEFSLFKELNEATEMFGKEDEEGTAATETEKADESTDGGMVKHDTNKAESLKKDKLSKEQREKLMEMEKKRREDMMKQVDELAEKLNEKISRYLIAVKSNNLEEFTRKLDQEIEDLKLESFGLELLYLLARVYKTKANNFIMSKKTYGISKIFTGTRDNARSVKSAYNLLSTGLEAQKAMEKMSEVNTDELDQYERAKFESTMAGKALGVMWAMSKFELERKLKDVCNKILNDKKVPSKERIAKAKAMLFIAHKFASARRSPEEAEEARVFEELILGEQEKEHKKHTVAR
MKRGIIIIEDKKVSVTGNEVWMTATEIAGLFRAGVPAVNAAIKAVRKSDVLNDYEVCRYMRLENGLHADVYALEIIIPIAFRLNTYCTHVFRRWLVEKALAKEKQQAYVMLIHKANGYC
MGSDKIHHHHHHMLQTINLTQRYATKKLFENVNIKLDKNKRYGLIGANGAGKSTFLKILSKSIDCSSGEVIITSGMKMGVLGQDQYAFEDLSLKDAVLIGNKRLYDAIKEKERLYTEGDLSDDKVNARLGELETICVEEDPMYECEVAIEKILEDLGIPSSKHNDLMKTLPSSDKFKILLAQVLFPKPDILLLDEPTNNLDLNAIEWLENNLKRHEGTMVVISHDRHFLNAVCTHILDLDFHSVREFSGNYDDWYIASTLIAKQQEAERNKKLKEKEELEKFIARFSANASKAKQATSRQKQLDKLDIQSLAVSSRRDPSIIFKPKRTIGNEALECENISKSYDDQIVLNQVSLKVMPKDKIALIGPNGVGKSTLCKILVEELKPDKGVVKWGATVSKGYFPQNVSEEISGEETLYQWLFNFNKKIESAEVRNALGRMLFNGEEQEKCVNALSGGEKHRMVLSKLMLEGGNFLVLDEPTNHLDLEAIIALGEALFKFDGALICVSHDRELIDAYANRIIELVPSPKGASIIDFKGSYEEYLASKK
MGNKIAVIPGTFDPITNGHLDIIERAAKIFDVLYVSVLNNSSKKPLFTVEERMEMIKQVTAHLPNVHVESASGLTVDYAAKRGATAIVRGLRAVSDFEYEMQIASMNRTLNADIETFFVMTNTKYSFLSSSMVKEVAQYQGDIRELVPEVVNKAVKAKFNK
MAEQQPSKEEKKEDKKDEKEEELPAPSVQQSIRQLPKIQITDDDKGEQLPECTEGEWDASDEPFSAELLNVKNAPNKVSVFSGPYRSKETIEKIKKFRAAMPPVIPIIDERPDKLAQMMSRIFSEIIDGRDLSKIKVFFFIK
